This data set concerns the target T1, Kaiso without BTB/POZ domain, GST fusion (UniProt Q86T24 113-672).
T1 sequence: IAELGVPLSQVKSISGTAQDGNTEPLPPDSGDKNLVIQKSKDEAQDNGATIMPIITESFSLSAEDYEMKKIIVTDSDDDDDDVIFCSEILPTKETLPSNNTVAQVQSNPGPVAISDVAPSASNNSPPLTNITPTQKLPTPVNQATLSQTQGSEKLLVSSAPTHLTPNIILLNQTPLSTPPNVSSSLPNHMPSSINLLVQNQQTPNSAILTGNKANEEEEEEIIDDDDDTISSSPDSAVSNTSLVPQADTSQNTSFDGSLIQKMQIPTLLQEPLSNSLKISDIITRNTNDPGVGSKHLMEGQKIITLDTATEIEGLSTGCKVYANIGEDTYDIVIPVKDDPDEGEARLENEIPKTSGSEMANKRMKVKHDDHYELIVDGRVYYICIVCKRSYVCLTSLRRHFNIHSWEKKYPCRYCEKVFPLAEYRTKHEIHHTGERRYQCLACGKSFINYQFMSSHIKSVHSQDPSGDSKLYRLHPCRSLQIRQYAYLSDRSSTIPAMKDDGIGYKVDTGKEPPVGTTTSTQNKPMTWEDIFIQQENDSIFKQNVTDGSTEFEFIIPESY
Kind of data set: EMSA. (In general: In EMSA bound probe runs differently from free probe, usually more slowly.)

B1: met-SM-FAM / met-SM methylated probe (dsDNA)
DNA 1: GCAGCCGCGCCCAACGCTGGGAGATC
DNA 2: TCCCCAGCGTTGGGCGCGGCTGCGATC
modifications: 5-methylcytosine (printed meC) at strand 1 positions 6, 8, 15 and strand 2 positions 8, 15, 17
With B1, the binding result was “binds”.

The values above are taken from article doi:10.1101/2020.12.09.418111.
